Reference: article PMC9605875 (Cell Host & Microbe, 2022)

B1: 1112-1 IgG (antibody, V domains shown)
VH: QVQLQQPGAELLKPGTSMKLSCKASGYTFSNYWMHWVKLRPGQGFEWIGEINPFNGGTNFNEKFKSKATLTVDRSSSTAYMQLSSVTSEDSAVYYCTIPLSDYGDWFFAVWGAGTTVTVSS
VL: DIVMTQSHKFMSTSIGDRVSITCKASQDVSTAVAWYRQKPGQSPKLLIYSASYRSTGVPDRFTGSGSGTDFTFTISSVQAEDLAVFYCQQHYSAPLTFGAGTKLELK
notes: copies: 2 + 2
B2: 17C7 IgG (antibody, V domains shown)
VH: EVQLVESGGGVVQPGRSLRLSCAASGFTFSTYAMHWVRQAPGKGLEWVAVVSYDGRTKDYADSVKGRFTISRDNSKNTLYLQMNSLRTEDTAVYFCARERFSGAYFDYWGQGTLVTVSS
VL: EIVLTQSPATLSLSPGERATLSCRASQSVSSYLAWYQQKPGQAPRLLIYDASNRATGIPARFSGSGSGTDFTLTISSLEPEDFAVYSCQQRNNWPPTFGGGTKVEIK
notes: IgG1; copies: 2 + 2

Biological target: Wild-type RABV-G, untagged, full length, on transfected Expi293 cells (Rabies virus, Pasteur (PV) ectodomain; …, UniProt P08667, strain)
Assay: flow cytometry on cells
Conditions: one partner purified

| Binder | binding result |
| --- | --- |
| B1 | binds |
| B2 | binds |
